Reference: the nanobody polyreactivity screen of Harvey et al. (2022)

Test: yeast display, Sf9 membrane polyspecificity reagent, FACS + sequencing; frameworks hold sequencing errors
Procedure, shortened: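 Nanobodies from a synthetic yeast display library (Saccharomyces cerevisiae BJ5465), induced 36–48 hours with galactose, were stained 1 hour at 4 °C with 10% biotinylated, detergent-solubilized Sf9 membrane reagent, enriched on streptavidin microbeads, then FACS-sorted. Anti-HA (expression) and streptavidin (reagent binding) fluorescence set low and high (top ~1%) gates. Polyreactivity labels come from the gate of origin. Genes were colony-PCR amplified, MiSeq 2 × 250 sequenced and filtered by CDR length.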

Sequence | polyreactivity (PSR sort gate)
QVQLVESGGGLVQAGGSLRLSCAASGFTFSKYVKGLYRQAPGKERELVAAISKRGGSTYYADSVKGRFTISRDYAKNTVYLQMNSLKPEDTAVYYCAARYYLEQILEKDYWVQGTQVTVSS | high polyreactivity
QVQLVESGGGLVQAGGSLRLSCAASGFTFSLNTMGWYRQAPGKEREFVAAITYRTGRTYYADSVKGRFTISRDNAKNTVYLQMNSLKPDDTAVYYCNAGEHTRWYYWTPTYTTVDYWGLGTQVTVSS | low polyreactivity
QVQLVESGGGLVQAGGSLRLSCAASGFTFSLYAMGWYRQAPGKERELVAAISRSGGSTYYADSVKGRFTISRDNAKKTVYLQMNSLKPEDTAVYYCNAPYSVSSIRYDYWGQGTQVTVSS | high polyreactivity
QVQLVESGGGLVQAGGSLRLSCAASGFTFSNYAMGWYRQAPGKEREFVAAISGTGGSTYYADSVKGRFTISRDNAKNTVYLQMNSLKPEDTAVYYCARRRTYPPGRYYYWGQGTQVTVSS | high polyreactivity
QVQLVESGGGLVQAGGSLRLSCAASGFTFSPNAMGWYRQAPGKERELVAAIDWNGGSTYYADSVKGRFTISRDNAKNTVYLQMNSLKPEDTAVYYCNADWVYWQYLTSFVTFDYWGQGTQVTVSS | low polyreactivity
QVQLVESGGGLVQAGGSLRLSCAASGFTFSPYAMGWYRQAPGKERELVAAISSSGGSTYYADSVKGRFTISRDNAKNTVYLQMNSLKPEDTAVYYCATQGTRRPGKFYYWGQGTQVTVSS | high polyreactivity
QVQLVESGGGLVQAGGSLRLSCAASGFTFSPYTMGWYRQAPGKEWELVATIRYDGTSTYYADSVKGRFTISRDNAKNTVFLQMNSLKPEDTEVYYCAADIWRVYSTIYYWGQGTQVTVSS | low polyreactivity
QVQLVESGGGLVQAGGSLRLSCAASGFTFSPYVMGWYRQAPGKERELVATITAGGSSTFYADSVKGRFTISRDNAKNTVYLQMNSLKPEDTAVYYCNTVSPSFVYESTSDRFDYWGQGTQVTVSS | low polyreactivity
QVQLVESGGGLVQAGGSLRLSCAASGFTFSQNAMGWYRQAAGKERELVAAITGDGGSTYYADSVKGRFTISRDNAKNTVFLQMNSLKPEDTAVYYCAADPSPYSAFGIYWFRYDYWGQGTQVTVSS | low polyreactivity
QVQLVESGGGLVQAGGSLRLSCAASGFTFSRNAMGWYIQAPGKERELVAAISQSGGSTYYADSVKGRFTISRDNAKNTVYLQMNSLKPEDTAVYYCAAQSFAQYGWRYGYWGQGTQVTVSS | high polyreactivity
QVQLVESGGGLVQAGGSLRLSCAASGFTFSRYAMGWYRQAPGKERELVAAISRSGGRTSYADSVKGRFTISRDNSKNTVFLQMNSLKPEDTAVYYCAARTATGSSSSIGYGYWGQGTQVTVSS | high polyreactivity
QVQLVESGGGLVQAGGSLRLSCAASGFTFSSNAMGWFRQAPGKERELVAAISFSGTRTYYADSVKGRFTISRDNAKKTVYLQMNSLKPEDTAVYYCAAGRHYGPLSGRTKGMEYWGQGTQVTVSS | high polyreactivity
QVQLVESGGGLVQAGGSLRLSCAASGFTFSSNAMGWYRQAPGKERELVAAIRSDGVRTYYADSVKGRFTISRDNAKNTVYLQMNSLKPEDTAVYYCNSVSDVRIGAGDYWGQGTQVTVSS | high polyreactivity
QVQLVESGGGLVQAGGSLRLSCAASGFTFSSYAMGWYRQAPGKERELVAAITYRGGSTYYADSVKGRFTISRDNAKNTVYLQMNSLKPEDTAVYYCAARWGYRMYWGQGTQVTVSS | high polyreactivity
QVQLVESGGGLVQAGGSLRLSCAASGFTFSTNAMGWYRQAPGKERELVAAISPDGGTYYADSVKGRFTISRDNAKNTVYLQMNSLKPEDTAVYYCAAVWGRGVWDLYDYWGQGTQVTVSS | low polyreactivity
QVQLVESGGGLVQAGGSLRLSCAASGFTFSTYAMGWYRQAPGKESELVAAITRSGGSTYYADSVKGRFTISRDIEKNTVYLQMNSLKQEDTAVYYCATDASFYDPDLYPYGYDYWGQGTQVTVSS | high polyreactivity

Sequence | polyreactivity (PSR sort gate)
QVQLVESGGGLVQAGGSLRLSCAASGFTFSVNAMGWYRQAPGKERELVADIDWSGGSTYYADSVKGRFTISRDNAKNTVYLQMNSLKPEDTAVYYCSADYYSPDSYVQGSSGEYWGQGTQVTVSS | low polyreactivity
QVQLVESGGGLVQAGGSLRLSCAASGFTFSWYAMGWYRQAPGKEMELVAAIDDGGSTYYADSVKGRFTISRDNAKNTVYLQMNSLKPEDTAVYYCNARGYGTLNVRRERMDYWGQGTQVTVSS | high polyreactivity
QVQLVESGGGLVQAGGSLRLSCAASGFTFSWYAMGWYRQAPGKERELVAAISSAGNTNYADSVKGRFTISRDNAKNTVYLQMNSLKPEDTAVYYCAKRDYWGQGTQVTVSS | high polyreactivity
QVQLVESGGGLVQAGGSLRLSCAASGFTFSWYAMGWYRQAPGKERELVAAITSGGGTNYADSVKGRFTISRDNAKNTVYLQMNSLKPEDTAVYYCAARGRWFYYLDDYWGQGTQVTVSS | low polyreactivity
QVQLVESGGGLVQAGGSLRLSCAASGFTFSYNAMGWYRQAPGKERELVAAITYSAGNTYYADSVKGRFTISRDNAKNTVYLQMNSLKPEDTAVYYCNAVTKHRAITNMDYWGQGTQVTVSS | high polyreactivity
QVQLVESGGGLVQAGGSLRLSCAASGFTFSYNTMGWYRQAPGKERELVAAISGSGARTYYADSVKGRFTISRDNAKNSVYLQMNSLKPEDTAVYYCNAKYGYDSEARIVKPVRYDYWGQGTQVTVSS | high polyreactivity
QVQLVESGGGLVQAGGSLRLSCAASGFTFSYYAMGWYIQAPGKERELVATITWGGGRTYYADSVKGRFTISRDNAKNTVYLQMNSLKPEDTAVYYCNAERTYFQYYRNYDYWGQGTKVTVSS | low polyreactivity
QVQLVESGGGLVQAGGSLRLSCAASGFTFSYYAMGWYRQAPGKERELVAAISWNGGSTYYADSVKGRFTISRDNAKNTVYLQMNSLKPEDTAVNYCAADSLLYYYDTGYEYWGQGTQVTVSS | high polyreactivity
QVQLVESGGGLVQAGGSLRLSCAASGFTFSYYAMGWYRQAPGKERELVARISFSGTRTYYADSVKGRFTISRDNAKNTVYLEMNSLKPEDTAVYYCAARFGYVGITARYDYWGQGTQVTVSS | high polyreactivity
QVQLVESGGGLVQAGGSLRLSCAASGFTFSYYAMGWYRQAPGKERELVATITWDGGSTYYADSVKGRFTISRDNAKNTVYLQMNSLKPEDTAVYYCAAQYYRWQTKYDYWGQGTQVTVSS | high polyreactivity
QVQLVESGGGLVQAGGSLRLSCAASGFTFSYYVMGLYRQAPGKERELVAAITSGGSTYYADSVKGRFTISRDNAKNTVYLQMNSLKPEDTAVYYCNARTYSRVTRQTYRYRPYDYWGQGTQVTVSS | high polyreactivity
QVQLVESGGGLVQAGGSLRLSCAASGFTFTAYAMGWSRQAPGKERELVAAISSGGSTYYADSVKGRFTISRDNAKNTVYLQMNSLKPEDTAVYYCAAVGVYTVKREYWGQGTQVTVSS | low polyreactivity
QVQLVESGGGLVQAGGSLRLSCAASGFTFTAYAMGWYRQAPGKERELVAAISRSGGSTSYADSVKGRFTISRDNAKNTVYLQMNSLKPEDTAVYYCAAGRVGWGQGTQVTVSS | high polyreactivity
QVQLVESGGGLVQAGGSLRLSCAASGFTFTGNAMGWYRQAPGKERELVAAITSGGRTYYADSVKGRFTISRDNAKNTVYLQMNSLIPEDTAVYYCNTAGLKRYVTFYYWGQGTQVTVSS | high polyreactivity
QVQLVESGGGLVQAGGSLRLSCAASGFTFTMNAMGWYRQAPGKERELVAGISSGGSTNYADSVKGRFTLSRDNEKNTVYLQMNSLKPEDTAVYYCAADRGYVWRYDYWGQGTQVTVSS | low polyreactivity
